Reference: patent US20150258192A1, “COMPOSITIONS AND METHODS FOR PREVENTING OR TREATING CHRONIC LUNG ALLOGRAFT DYSFUNCTION (CLAD) AND IDIOPATHIC PULMONARY FIBROSIS (IPF)” (priority 2014, published 2015)

Molecular target: MAPKAP-K2(h) (human) (UniProt P49137)
Assay: cell-based or functional assay

With MMI-0100 ([…]; SEQ ID NO: 1) (peptide) as the substance, how does the IC50 (radiometric kinase activity assay) read?
The IC50 (radiometric kinase activity assay) was 22 µM.
